Substrate: NC(=O)c1ccc[n+]([C@@H]2O[C@H](COP(=O)(O)OP(=O)(O)OC[C@H]3O[C@@H](n4cnc5c(N)ncnc54)[C@H](OP(=O)(O)O)[C@@H]3O)[C@@H](O)[C@H]2O)c1
Assay: purified protein

B1: Glucose-6-phosphate dehydrogenase (camel liver G6PD) (Camelus dromedarius) (protein)
chain: AEQVALSRNQVCGILREELYQGDAFHQSDTHIFIIMGASGDLAKKKIYPTIWWLFRDGLLPEDTYIVGYARSRLTVADIRKQSEPFFKATPEEKPKLEEFFARNSYVAGQYDDAASYERLNSHMNALHQGSQANRLFYLALPPTVYEAVTKNIRETCMSQTGWNRIIVEKPFGRDLQSSNQLSNHISSLFREDQIYRIDHYLGKEMVQNLMVLRFANRIFGPIWNRDNIACVILTFKEPFGTEGRGGYFDEFGIIRDVMQNHLLQMLCLVAMEKPASTDSDDVRDEKVKVLKCISEVQANNVVLGQYVGNPNGEGEATKGYLDDPTVPRGSITATFAAVVLYVENERWDGVPFILRCGKALNERKAEVRLQFRDVAGDIFQQQCKRNEVVIRVQPNEAVYTKMMTKKPGMFFNPEESELDLTYGNRYKNVKLPDAYERLILDVFCGSQMHFVRSDELREAWRIFTPLLHKIEREKLQPIPYVYGSRGPAEADELMKRVGFQYEGTYKWVNPHKL
For B1, the Km was 81 µM.

Source: PMC4290037, “Purification and Characterization of Glucose-6-Phosphate Dehydrogenase from Camel Liver” (Enzyme Research, 2014)
